One assay has as its system ESO specific clones. Nature of the assay: Recognition of His-tagged and untagged ESO peptides by specific clones with DR52b+ EBV-B cells (IFN-γ ELISA). To be noted: 24 hrs. The assay is classed as cell-based, human. How it is done:
FIG. 16. DR52b binding capacity of His-tagged and untagged ESO peptides and recognition by specific clones. (A) The capacity of His-tagged and untagged ESO peptides to bind to DR52b was assessed in a competition assay with a biotin-labeled HA-derived peptide. ESO and control peptides were incubated overnight at 37° C., at the indicated concentrations, with recombinant empty DR52b protein (5 μg) and biotin-labeled HA306-318 peptide (0.2 μM). The quantity of DR52b molecules containing the biotin-labeled peptide in each test-point was assessed by ELISA using anti-HLA-DR (clone L243) coated plates and alkaline phosphatase-labeled streptavidin. (B) ESO specific clones were incubated with DR52b^+ EBV-B cells and ESO peptides, at the indicated concentrations, and IFN-γ was measured by ELISA in 24 hrs culture supernatants. Results are shown for one clone representative of 3 clones tested. DR52b^+ ESO-specific CD4^+ T cell clones or polyclonal cultures were stimulated in the absence or presence of ESO peptides (2 μM) or PMA (100 ng/ml) and ionomycin (1 μg/ml), as indicated, and cytokine production was assessed in a standard 4 hrs intracellular cytokine staining assay using mAb specific for IFN-γ, TNF-α, IL-2, IL-4, IL-10 (BD Biosciences) and IL-17 (eBiosciences), as previously described (9, 34). […]
Background: An ELISA detects its analyte on a solid surface through an enzyme-linked reagent.

The next assay concerns the target T1, DR52b (Homo sapiens, UniProt P01903+P79483).
T1 construct: made in house; host or cells: D.Mel-2 (Drosophila) cells, pMT/BiP/V5-His A vector, secreted, purified on L243 anti-HLA-DR column
Nature of the assay: DR52b competition binding assay with biotin-labeled HA306-318 peptide. As to conditions: relative to untagged peptide. How it is done: FIG. 16. DR52b binding capacity of His-tagged and untagged ESO peptides and recognition by specific clones. (A) The capacity of His-tagged and untagged ESO peptides to bind to DR52b was assessed in a competition assay with a biotin-labeled HA-derived peptide. ESO and control peptides were incubated overnight at 37° C., at the indicated concentrations, with recombinant empty DR52b protein (5 μg) and biotin-labeled HA306-318 peptide (0.2 μM). The quantity of DR52b molecules containing the biotin-labeled peptide in each test-point was assessed by ELISA using anti-HLA-DR (clone L243) coated plates and alkaline phosphatase-labeled streptavidin. (B) ESO specific clones were incubated with DR52b^+ EBV-B cells and ESO peptides, at the indicated concentrations, and IFN-γ was measured by ELISA in 24 hrs culture supernatants. Results are shown for one clone representative of 3 clones tested.
Because our new approach involves the addition of a His-tag to the ESO peptides, it was important to address the effect of this modification on peptide binding to class II molecules and recognition by specific CD4^+ T cells. With this aim we assessed the relative efficiency of untagged and His-tagged ESO peptides to bind to DR52b using a previously described competition assay (13).

On to “His-tagged ESO123-137: ESO123-137 extended at the N-terminus by 6 His residues and a linker (Ser-Gly-Ser-Gly)”, for which the “recognition by specific CD4+ T cells relative to untagged peptide” value in the assay on ESO specific clones is “moderately improved efficiency”. Also, the “effect of His-tag on peptide binding to DR52b” value with DR52b is “did not significantly modify”.

Take “His-tagged ESO119-143: ESO119-143 extended at the N-terminus by 6 His residues and a linker (Ser-Gly-Ser-Gly)”: the “effect of His-tag on peptide binding to DR52b” value with DR52b is given as “did not significantly modify”.

Source of the values: patent US20130029358A1, “IMMUNODOMINANT MHC DR52B RESTRICTED NY-ESO-1 EPITOPES, MHC CLASS II MONOMERS AND MULTIMERS, AND USES THEREOF” (LUDWIG INSTITUTE FOR CANCER RESEARCH LTD., priority 2010, published 2013).
